Laboratory results: the nanobody polyreactivity screen of Harvey et al. (2022)

Test: yeast display, Sf9 membrane polyspecificity reagent, FACS + sequencing; frameworks hold sequencing errors
Outline: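 In a synthetic yeast display library (Saccharomyces cerevisiae BJ5465), nanobody expression was induced with galactose for 36–48 hours. FACS gates were set low and high (top ~1%) using anti-HA fluorescence for expression and streptavidin fluorescence for binding of the Sf9 membrane reagent. Each polyreactivity label is drawn from the gate of origin.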

## QVQLVESGGGLVQAGGSLRLSCAASGYIFYTYAMGWYRQAPGKERELVAGITGSGGSTYYADSVKGRFTISRDNAKNTVYLQMNSLKPEDTAVYYCANDIYQIGYRRYDSWGQGTQVTVSS
  polyreactivity (PSR sort gate): low polyreactivity

## QVQLVESGGGLVQAGGSLRLSCAASGRIFIHYAMGWYRQAPGKERELVAAISWGGGRTYYADSVKGRFTISRDNAKNTVYLQMNSLKPEDTAVYYCAAAGRGSGYDYWGQGTQVTVSS
  polyreactivity (PSR sort gate): high polyreactivity

## QVQLVESGGGLVQAGGSLRLSCAASGRIFRYYDMGWYRQAPGKEREFVAAITRSGAITYYADSVKGRFTISRDNAKNTVYLQMNSLKPEDTAVYYCAARYWSKFGYWGQGTQVTVSS
  polyreactivity (PSR sort gate): low polyreactivity

## QVQLVESGGGLVQAGGSLRLSCAASGFTFKKYAMGWYRQAPGKERELVASITWSGGSTSYADSVKGRFTISRDNAKNTVYLQMNSRKPEDTAVYYCDAATFVYRLRYNRFDYWGQGTQVTVSS
  polyreactivity (PSR sort gate): high polyreactivity

## QDQLVESGGGLVQAGGSLSLSCAASGSIFFRNVMGWYRQAPGKERELVAAISGSGGRTYNADSVKGRFTISRDNAKNTVYLQMNSLKPEDTAVYYCYADYWSRRDDHDYWGQGTQVSVSS
  polyreactivity (PSR sort gate): high polyreactivity

## QVQLVESGGGLVQAGGSLRLSCAASGITFKYNAMAWYRQAPGKEMELVAAISSGGNTYYADSVKGRFTISRDNAKNTVYLQMNSLKPEDTAVYYCAAPSYDTLWHDYWGQGTQVTVSS
  polyreactivity (PSR sort gate): low polyreactivity

## QVQLVESGGGLVQAGGSLRLSCAASGRIFWYYAMGWYRQAPGKERELVASITRGNNTYYADSVKGRFTISRDNAKNPVYLQMNSLIPEDTAVYYCNAYRVRYTVDSVFYGYDYWGQGTHVTVSS
  polyreactivity (PSR sort gate): high polyreactivity

## QVQLVESGGGLVQAGGSLRLSCAASGITFPGNAMGWYRQAPGKERELVAVISSGTSTNYADSVKGRFTISRDNAKYTVYLQMNSLKPEDTAVYYCATSLYYYPYYYWGQGTQVTVSS
  polyreactivity (PSR sort gate): low polyreactivity

## QVQLVESGGGLVQAGGSLRLSCAASGSTFYKNAMGWYIQAPGKERELVAAISGSGGRTYYADSVKGRFTISRDTAKNTVYLQMNSLKPEDTAVYYCNAARAYYSLYYGLDYWGQGTQVTVSS
  polyreactivity (PSR sort gate): high polyreactivity

## QVQLVESGGGLVQAGGSLRLTCAASGLTFWWYAMGWYRQAPGKERELVAGITGGGSTSYADSVKGRFTISRDNAKNTVYLQMNSLIQEDTAVYYCAASPYNGQRTWYKYFFLGDYWGQGTQVTVSS
  polyreactivity (PSR sort gate): high polyreactivity

## QVQLVESGGGLVQAGGSLRLSCAASGSIFRSYAMGWYSPSPGKERELVAAITRSGGSTYYADSVKGRFTISRDNAKNTVYLQMNSLKPEDTAVYYCAAEYYSYTWGWGHGYWGQGTQVTVSS
  polyreactivity (PSR sort gate): high polyreactivity

## QVQLVESGGGLVQAGGSLRLSCAASGTFAGNAMGCYRQSPGKERELVASITTGGRTYYADSVKGRFTISRDNAKNTVYLQMNSLKPEDTAVFYCSADLIRELEFDYWGQGTQVTVSS
  polyreactivity (PSR sort gate): low polyreactivity

## QVQLVESGGGLVQAGGSLRLSCAASGSIFSYYAMGWYRQAPGKERELVAAITSGGATTYYADSVKGRFTISRDNAKNTVYLQMNSLKPEDTAVYYCAAGYYVYYRWWELDYWGQGTQVTVSS
  polyreactivity (PSR sort gate): low polyreactivity

## QVQLVESGGGLVQAGGSLRLSCAASGSIFYIYAMVWYRQAPGKERELVATITRGGSSYADSVKGRFTISRDNAKNTVYFQMNSLIPEDTAVYYCAADVFKYWSQQTSTVYDYWGQGTQVTVSS
  polyreactivity (PSR sort gate): high polyreactivity

## QVQLVESGGGLVQAGGSLRLSCAASGRTFWVYAMGWYRQAPGKERELVAAIRRGGITNYADSVKGRFTISRDNAKNTVYLQMNSLKPEDTAVYYCAALGLWFLQFDYWGQGTQVTVSS
  polyreactivity (PSR sort gate): low polyreactivity

## QVHLVESGGGLVQAGVSLRLSCAASGSTFRRNAMGWYRQEPGKERELVAAISTSGGTTYYADSVKGRFTISRDNAKNTVYLEMNSLKPEDTAVYYCNADVYVWNYKYYSSGQGTQVTVSS
  polyreactivity (PSR sort gate): high polyreactivity

## QVQLVESGGGLVQAGGSLRLSCAASGRILWSYAMGWYRQAPGKEREFVAAISRGGGTTYYADSVKGRFTISRDNAKNTVYLQMNSLKPEDTAVYYCNAGDHIRKRYGISATWGYGYGYWGQGTQVTVSS
  polyreactivity (PSR sort gate): high polyreactivity
